Laboratory results taken from EP4755449A2 (CHUGAI SEIYAKU KABUSHIKI KAISHA, dated 2026).

Tests used:
[1] = biological target: T1, human Fc gamma RIIIaV extracellular domain, His-tagged (human, UniProt P08637 17-208); assay: SPR 25C
T1 construct: also called FcgRIIIaV

human latent myostatin [2] = biological target: T2, human latent myostatin (human, UniProt O14793 25-266; O14793 267-375); assay: SPR, dissociation phase at pH5.8
T2 construct: non-covalent complex of two propeptides and the mature homodimer; also called human myostatin latent form
T2 sequence 1: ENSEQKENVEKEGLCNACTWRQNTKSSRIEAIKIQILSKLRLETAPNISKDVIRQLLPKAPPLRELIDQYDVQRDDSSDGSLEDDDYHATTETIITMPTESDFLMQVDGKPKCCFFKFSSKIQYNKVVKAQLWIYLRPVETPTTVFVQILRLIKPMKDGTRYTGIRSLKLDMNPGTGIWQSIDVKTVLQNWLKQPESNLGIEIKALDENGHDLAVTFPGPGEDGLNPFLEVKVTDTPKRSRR
T2 sequence 2: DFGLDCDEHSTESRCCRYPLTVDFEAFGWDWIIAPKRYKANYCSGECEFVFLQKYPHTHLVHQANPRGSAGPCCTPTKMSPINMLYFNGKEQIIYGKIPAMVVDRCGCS

human latent myostatin [3] = biological target: T2, human latent myostatin; assay: SPR 37C
mouse latent myostatin [4] = biological target: T3, mouse latent myostatin (mouse, UniProt O08689 26-267; O08689 268-376); assay: SPR 37C
T3 sequence 1: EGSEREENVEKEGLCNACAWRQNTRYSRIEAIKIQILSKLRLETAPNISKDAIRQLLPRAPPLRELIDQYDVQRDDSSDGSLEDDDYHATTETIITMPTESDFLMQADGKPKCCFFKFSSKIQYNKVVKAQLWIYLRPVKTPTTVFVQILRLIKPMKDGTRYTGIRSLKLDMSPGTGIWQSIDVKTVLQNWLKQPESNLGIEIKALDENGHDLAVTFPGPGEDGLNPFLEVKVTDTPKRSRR
T3 sequence 2: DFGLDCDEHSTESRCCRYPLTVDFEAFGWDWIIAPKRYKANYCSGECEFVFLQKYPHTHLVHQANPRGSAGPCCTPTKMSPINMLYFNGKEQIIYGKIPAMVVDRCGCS

[5] = biological target: T4, cynomolgus monkey latent myostatin (cynomolgus monkey, UniProt Q95J86 25-266; Q95J86 267-375, limits assumed); assay: SPR 37C
T4 construct: also called cyno latent myostatin
T4 sequence 1: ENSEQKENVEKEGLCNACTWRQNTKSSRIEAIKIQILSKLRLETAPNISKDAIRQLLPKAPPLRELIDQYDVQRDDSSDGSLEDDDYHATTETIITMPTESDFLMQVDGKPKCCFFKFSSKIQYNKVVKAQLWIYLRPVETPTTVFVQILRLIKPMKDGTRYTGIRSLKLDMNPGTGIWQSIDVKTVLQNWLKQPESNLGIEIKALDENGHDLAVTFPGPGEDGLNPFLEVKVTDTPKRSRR
T4 sequence 2: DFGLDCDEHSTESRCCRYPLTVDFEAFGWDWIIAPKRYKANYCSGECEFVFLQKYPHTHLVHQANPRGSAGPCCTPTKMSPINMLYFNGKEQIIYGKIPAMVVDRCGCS

human latent myostatin [6] = biological target: T2, human latent myostatin; assay: SPR 37C pH5.8; pH 5.8
mouse latent myostatin [7] = biological target: T3, mouse latent myostatin; assay: SPR 37C pH5.8; pH 5.8
[8] = biological target: T4, cynomolgus monkey latent myostatin; assay: SPR 37C pH5.8; pH 5.8
human latent myostatin [9] = biological target: T2, human latent myostatin; assay: SPR 37C pH7.4; pH 7.4
mouse latent myostatin [10] = biological target: T3, mouse latent myostatin; assay: SPR 37C pH7.4; pH 7.4
[11] = biological target: T4, cynomolgus monkey latent myostatin; assay: SPR 37C pH7.4; pH 7.4
[12] = biological target: T5, human Fc gamma RIIb extracellular domain, His-tagged (human, UniProt P31994 43-217); assay: SPR 25C, antigen-antibody complex injected over captured His-tagged receptor
T5 construct: also called FcgRIIb
T5 sequence: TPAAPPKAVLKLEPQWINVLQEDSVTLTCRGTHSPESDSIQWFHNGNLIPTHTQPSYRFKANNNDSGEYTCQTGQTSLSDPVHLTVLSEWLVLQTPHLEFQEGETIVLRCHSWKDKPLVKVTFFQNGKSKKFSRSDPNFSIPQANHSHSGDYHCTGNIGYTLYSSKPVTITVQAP

T1 sequence (P08637 17-208 F176V): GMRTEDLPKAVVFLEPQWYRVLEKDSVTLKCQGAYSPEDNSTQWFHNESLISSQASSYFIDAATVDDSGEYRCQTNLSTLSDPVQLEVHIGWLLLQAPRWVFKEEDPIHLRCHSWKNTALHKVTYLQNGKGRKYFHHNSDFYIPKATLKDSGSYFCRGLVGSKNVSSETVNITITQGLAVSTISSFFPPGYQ

B1: GpH7-B3 G237Y/GpL16-k0 (antibody, human IgG1, kappa)
heavy: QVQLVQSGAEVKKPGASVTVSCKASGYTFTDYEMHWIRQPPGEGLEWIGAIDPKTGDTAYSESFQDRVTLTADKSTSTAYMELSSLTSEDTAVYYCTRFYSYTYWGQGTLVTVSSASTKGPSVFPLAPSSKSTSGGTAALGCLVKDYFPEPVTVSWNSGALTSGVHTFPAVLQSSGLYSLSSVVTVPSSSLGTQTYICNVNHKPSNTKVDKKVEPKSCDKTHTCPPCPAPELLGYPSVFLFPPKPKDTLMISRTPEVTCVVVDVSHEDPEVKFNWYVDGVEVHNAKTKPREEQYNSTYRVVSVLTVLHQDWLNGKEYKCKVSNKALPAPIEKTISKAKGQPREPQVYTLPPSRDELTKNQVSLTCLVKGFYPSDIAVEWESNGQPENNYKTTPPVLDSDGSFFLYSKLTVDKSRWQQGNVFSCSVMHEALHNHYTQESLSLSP
light: DIVMTQSPLSLPVTPGEPASISCQASESLVHSNRNTYLHWYLQKPGQSPQLLIYKVSNRFSGVPDRFSGSGSGTDFTLKISRVEAEDVGVYYCSQNTHVPPTFGQGTKVEIERTVAAPSVFIFPPSDEQLKSGTASVVCLLNNFYPREAKVQWKVDNALQSGNSQESVTEQDSKDSTYSLSSTLTLSKADYEKHKVYACEVTHQGLSSPVTKSFNRGEC
notes: copies: 2 + 2
B1 showed a relative binding [1] of 0 parent B3=100.

B2: GpH7-B3 N325L/GpL16-k0 (antibody, human IgG1, kappa)
heavy: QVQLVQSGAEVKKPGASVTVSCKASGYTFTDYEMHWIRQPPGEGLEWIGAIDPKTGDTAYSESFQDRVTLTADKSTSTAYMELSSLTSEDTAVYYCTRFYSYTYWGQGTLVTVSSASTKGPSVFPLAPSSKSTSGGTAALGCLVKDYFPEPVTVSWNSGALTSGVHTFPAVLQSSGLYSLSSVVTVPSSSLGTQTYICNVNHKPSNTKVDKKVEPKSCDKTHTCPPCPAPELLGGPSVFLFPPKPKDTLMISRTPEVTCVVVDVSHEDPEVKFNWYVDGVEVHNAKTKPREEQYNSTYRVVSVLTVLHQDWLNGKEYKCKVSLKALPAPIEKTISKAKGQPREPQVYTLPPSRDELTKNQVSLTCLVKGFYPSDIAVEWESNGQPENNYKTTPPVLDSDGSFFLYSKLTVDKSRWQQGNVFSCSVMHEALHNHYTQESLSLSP
light: DIVMTQSPLSLPVTPGEPASISCQASESLVHSNRNTYLHWYLQKPGQSPQLLIYKVSNRFSGVPDRFSGSGSGTDFTLKISRVEAEDVGVYYCSQNTHVPPTFGQGTKVEIERTVAAPSVFIFPPSDEQLKSGTASVVCLLNNFYPREAKVQWKVDNALQSGNSQESVTEQDSKDSTYSLSSTLTLSKADYEKHKVYACEVTHQGLSSPVTKSFNRGEC
notes: copies: 2 + 2
Work on B2 yielded a relative binding [1] of 0 parent B3=100.

B3: Ab003 (M103205H009/M103202L000) (antibody, V domains shown)
VH: QVTLKESGPVLVKPTETLTLTCTVSGIDLSSYDISWVRQAPGKGLEWVGIISHAGSTYYASWAKGRLTISKDTSKNQVVLTMTNMDPVDTATYYCARGVPAYSTGGDLWGQGTLVTVSS
VL: DIVMTQSPATLSLSPGERATLSCQSSQSVYDNNWLSWFQQKPGQPPKLLIYWASTLASGVPSRFSGSGSGTDFTLTISSLQPEDAATYYCAGGYGGGLYAFGQGTKVEIKR
notes: variant of MS1032LO00-SG1
In the case of B3, the koff (human latent myostatin [2]) is reported as 0.00088 s⁻¹.

B4: MS_M103240H1246-SG1/M103202L1045-SK1 (antibody, human IgG1, kappa, V domains shown)
VH: QVQLVESGGGLVQPGGSLRLSCAVSGIDLSHEDISWVRQAPGKGLEWVSIISYAGSKYYASWAKGRLTISKDTSKNQVVLTMTNMDPVDTATYYCARGVPAYSHGGDLWGQGTLVTVSS
VL: DIVMTQSPATLSLSPGERATLSCTTSQSVYHENWLSWFQQKPGQPPKLLIYWASTLAYGVPSRFSGSGSGTDFTLTISSLQPEDAATYYCAGGYGGGRYAFGQGTKVEIKR
notes: also called MS1032LO25-SG1
For B4, the “ratio of KD at pH 5.8/pH7.4” value (human latent myostatin [3]) was 92, the “ratio of KD at pH 5.8/pH7.4” value (mouse latent myostatin [4]) was 38 and the “ratio of KD at pH 5.8/pH7.4” value [5] was 41. It also gave a Kd (human latent myostatin [6]) of 25.5 nM, a Kd (mouse latent myostatin [7]) of 9.88 nM and a Kd [8] of 14.1 nM. The Kd (human latent myostatin [9]) was 0.276 nM, the Kd (mouse latent myostatin [10]) was 0.259 nM and the Kd [11] was 0.34 nM.

B5: Ab007 (M103205H028/M103202L008) (antibody, V domains shown)
VH: QVTLKESGPVLVKPTETLTLTCTVSGIDLSSYDISWVRQAPGKGLEWVGIISYAGSTYYASWAKGRLTISKDTSKNQVVLTMTNMDPVDTATYYCARGVPAYSHGGDLWGQGTLVTVSS
VL: DIVMTQSPATLSLSPGERATLSCQSSQSVYHNNWLSWFQQKPGQPPKLLIYWASTLASGVPSRFSGSGSGTDFTLTISSLQPEDAATYYCAGGYGGGLYAFGQGTKVEIKR
notes: variant of MS1032LO00-SG1
Work on B5 yielded a koff (human latent myostatin [2]) of 0.000415 s⁻¹.

B6: Ab004 (M103205H026/M103202L000) (antibody, V domains shown)
VH: QVTLKESGPVLVKPTETLTLTCTVSGIDLSSYDISWVRQAPGKGLEWVGIISYAGSTYYASWAKGRLTISKDTSKNQVVLTMTNMDPVDTATYYCARGVPAHSTGGDLWGQGTLVTVSS
VL: DIVMTQSPATLSLSPGERATLSCQSSQSVYDNNWLSWFQQKPGQPPKLLIYWASTLASGVPSRFSGSGSGTDFTLTISSLQPEDAATYYCAGGYGGGLYAFGQGTKVEIKR
notes: variant of MS1032LO00-SG1
B6 showed a koff (human latent myostatin [2]) of 0.000186 s⁻¹.

B7: Ab006 (M103205H000/M103202L008) (antibody, V domains shown)
VH: QVTLKESGPVLVKPTETLTLTCTVSGIDLSSYDISWVRQAPGKGLEWVGIISYAGSTYYASWAKGRLTISKDTSKNQVVLTMTNMDPVDTATYYCARGVPAYSTGGDLWGQGTLVTVSS
VL: DIVMTQSPATLSLSPGERATLSCQSSQSVYHNNWLSWFQQKPGQPPKLLIYWASTLASGVPSRFSGSGSGTDFTLTISSLQPEDAATYYCAGGYGGGLYAFGQGTKVEIKR
notes: variant of MS1032LO00-SG1
B7 was tested, and the koff (human latent myostatin [2]) was 8.58e-05 s⁻¹.

B8: Ab005 (M103205H028/M103202L000) (antibody, V domains shown)
VH: QVTLKESGPVLVKPTETLTLTCTVSGIDLSSYDISWVRQAPGKGLEWVGIISYAGSTYYASWAKGRLTISKDTSKNQVVLTMTNMDPVDTATYYCARGVPAYSHGGDLWGQGTLVTVSS
VL: DIVMTQSPATLSLSPGERATLSCQSSQSVYDNNWLSWFQQKPGQPPKLLIYWASTLASGVPSRFSGSGSGTDFTLTISSLQPEDAATYYCAGGYGGGLYAFGQGTKVEIKR
notes: variant of MS1032LO00-SG1
With B8 the koff (human latent myostatin [2]) was 7.63e-05 s⁻¹.

B9: MS_M103240H795-SG1/M103202L1045-SK1 (antibody, human IgG1, kappa)
heavy: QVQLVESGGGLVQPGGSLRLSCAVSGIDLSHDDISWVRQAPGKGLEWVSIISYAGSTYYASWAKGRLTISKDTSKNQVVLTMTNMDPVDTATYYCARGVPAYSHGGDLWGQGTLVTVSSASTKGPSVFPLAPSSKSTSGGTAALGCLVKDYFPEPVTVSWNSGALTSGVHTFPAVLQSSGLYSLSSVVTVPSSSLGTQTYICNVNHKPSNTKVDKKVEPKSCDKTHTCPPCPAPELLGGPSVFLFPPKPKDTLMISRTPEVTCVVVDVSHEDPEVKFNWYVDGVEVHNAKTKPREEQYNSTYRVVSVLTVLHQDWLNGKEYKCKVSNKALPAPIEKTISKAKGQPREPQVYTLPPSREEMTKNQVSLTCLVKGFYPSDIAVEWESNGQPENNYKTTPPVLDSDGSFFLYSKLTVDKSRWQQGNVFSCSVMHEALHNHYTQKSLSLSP
light: DIVMTQSPATLSLSPGERATLSCTTSQSVYHENWLSWFQQKPGQPPKLLIYWASTLAYGVPSRFSGSGSGTDFTLTISSLQPEDAATYYCAGGYGGGRYAFGQGTKVEIKRTVAAPSVFIFPPSDEQLKSGTASVVCLLNNFYPREAKVQWKVDNALQSGNSQESVTEQDSKDSTYSLSSTLTLSKADYEKHKVYACEVTHQGLSSPVTKSFNRGEC
notes: also called MS1032LO19-SG1
In the case of B9, the “ratio of KD at pH 5.8/pH7.4” value (human latent myostatin [3]) is reported as 168, the “ratio of KD at pH 5.8/pH7.4” value (mouse latent myostatin [4]) is reported as 106 and the “ratio of KD at pH 5.8/pH7.4” value [5] is reported as 109. The Kd (human latent myostatin [6]) was 45.8 nM, the Kd (mouse latent myostatin [7]) was 28.7 nM and the Kd [8] was 35.6 nM. It also gave a Kd (human latent myostatin [9]) of 0.273 nM, a Kd (mouse latent myostatin [10]) of 0.271 nM and a Kd [11] of 0.326 nM.

B10: MS103205H795-SG141/M103202L889-SK1 (antibody, human IgG1, kappa)
heavy: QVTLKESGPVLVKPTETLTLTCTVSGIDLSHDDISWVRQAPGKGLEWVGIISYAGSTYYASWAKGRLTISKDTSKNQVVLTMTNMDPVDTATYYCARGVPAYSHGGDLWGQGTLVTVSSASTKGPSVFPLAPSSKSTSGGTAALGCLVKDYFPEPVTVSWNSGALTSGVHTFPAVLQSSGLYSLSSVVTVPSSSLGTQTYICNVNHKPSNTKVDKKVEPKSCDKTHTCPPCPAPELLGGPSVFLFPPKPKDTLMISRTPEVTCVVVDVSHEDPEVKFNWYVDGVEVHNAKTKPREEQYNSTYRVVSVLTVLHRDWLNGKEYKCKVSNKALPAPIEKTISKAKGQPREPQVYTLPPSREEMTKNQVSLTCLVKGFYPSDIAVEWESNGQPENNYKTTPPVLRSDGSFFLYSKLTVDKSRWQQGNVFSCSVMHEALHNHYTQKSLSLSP
light: DIVMTQSPATLSLSPGERATLSCTSSQSVYHANWLSWFQQKPGQPPKLLIYWASTLAYGVPSRFSGSGSGTDFTLTISSLQPEDAATYYCAGGYGGGRYAFGQGTKVEIKRTVAAPSVFIFPPSDEQLKSGTASVVCLLNNFYPREAKVQWKVDNALQSGNSQESVTEQDSKDSTYSLSSTLTLSKADYEKHKVYACEVTHQGLSSPVTKSFNRGEC
notes: copies: 2 + 2
B10: binds [12].

B11: MS1032LO06-P1499m (antibody, human IgG1, kappa)
heavy: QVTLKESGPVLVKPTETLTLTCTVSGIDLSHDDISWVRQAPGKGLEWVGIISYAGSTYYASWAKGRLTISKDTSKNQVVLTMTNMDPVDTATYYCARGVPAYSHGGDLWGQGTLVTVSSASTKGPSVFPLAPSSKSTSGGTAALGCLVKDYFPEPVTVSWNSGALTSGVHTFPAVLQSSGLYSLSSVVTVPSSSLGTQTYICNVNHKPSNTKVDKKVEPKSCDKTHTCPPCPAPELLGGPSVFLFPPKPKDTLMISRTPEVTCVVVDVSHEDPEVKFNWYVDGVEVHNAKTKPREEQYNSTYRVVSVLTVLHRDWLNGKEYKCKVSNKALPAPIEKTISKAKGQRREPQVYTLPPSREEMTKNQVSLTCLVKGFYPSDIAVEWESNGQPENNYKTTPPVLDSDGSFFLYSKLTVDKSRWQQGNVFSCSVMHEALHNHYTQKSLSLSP
light: DIVMTQSPATLSLSPGERATLSCTSSQSVYHANWLSWFQQKPGQPPKLLIYWASTLAYGVPSRFSGSGSGTDFTLTISSLQPEDAATYYCAGGYGGGRYAFGQGTKVEIKRTVAAPSVFIFPPSDEQLKSGTASVVCLLNNFYPREAKVQWKVDNALQSGNSQESVTEQDSKDSTYSLSSTLTLSKADYEKHKVYACEVTHQGLSSPVTKSFNRGEC
B11: binds [12].

B12: MS1032LO06-P1540m (antibody, human IgG1, kappa)
heavy: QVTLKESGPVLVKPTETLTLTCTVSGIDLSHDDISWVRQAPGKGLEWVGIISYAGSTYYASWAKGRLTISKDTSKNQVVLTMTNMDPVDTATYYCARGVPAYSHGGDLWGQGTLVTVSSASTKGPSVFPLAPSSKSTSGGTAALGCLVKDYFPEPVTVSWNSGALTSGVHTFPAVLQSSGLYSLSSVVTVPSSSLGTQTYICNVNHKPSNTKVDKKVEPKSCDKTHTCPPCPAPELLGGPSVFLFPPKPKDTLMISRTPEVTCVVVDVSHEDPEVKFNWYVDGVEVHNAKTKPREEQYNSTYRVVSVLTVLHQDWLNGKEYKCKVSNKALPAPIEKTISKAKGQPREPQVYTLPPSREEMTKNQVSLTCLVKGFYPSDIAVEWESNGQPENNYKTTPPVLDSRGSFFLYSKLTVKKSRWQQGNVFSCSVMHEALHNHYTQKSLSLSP
light: DIVMTQSPATLSLSPGERATLSCTSSQSVYHANWLSWFQQKPGQPPKLLIYWASTLAYGVPSRFSGSGSGTDFTLTISSLQPEDAATYYCAGGYGGGRYAFGQGTKVEIKRTVAAPSVFIFPPSDEQLKSGTASVVCLLNNFYPREAKVQWKVDNALQSGNSQESVTEQDSKDSTYSLSSTLTLSKADYEKHKVYACEVTHQGLSSPVTKSFNRGEC
notes: copies: 2 + 2
B12: binds [12].
